Assay results: article PMC7794343, “Structures of human dual oxidase 1 complex in low-calcium and high-calcium states” (Nature Communications, 2021)

B1: human dual oxidase 1 (hDUOX1), matured protein 20-1551 with N-terminal GFP tag (enzyme, UniProt Q9NRD9-1 20-1551, looked up)
chain: GAQNPISWEVQRFDGWYNNLMEHRWGSKGSRLQRLVPASYADGVYQPLGEPHLPNPRDLSNTISRGPAGLASLRNRTVLGVFFGYHVLSDLVSVETPGCPAEFLNIRIPPGDPMFDPDQRGDVVLPFQRSRWDPETGRSPSNPRDPANQVTGWLDGSAIYGSSHSWSDALRSFSRGQLASGPDPAFPRDSQNPLLMWAAPDPATGQNGPRGLYAFGAERGNREPFLQALGLLWFRYHNLWAQRLARQHPDWEDEELFQHARKRVIATYQNIAVYEWLPSFLQKTLPEYTGYRPFLDPSISSEFVAASEQFLSTMVPPGVYMRNASCHFQGVINRNSSVSRALRVCNSYWSREHPSLQSAEDVDALLLGMASQIAEREDHVLVEDVRDFWPGPLKFSRTDHLASCLQRGRDLGLPSYTKARAALGLSPITRWQDINPALSRSNDTVLEATAALYNQDLSWLELLPGGLLESHRDPGPLFSTIVLEQFVRLRDGDRYWFENTRNGLFSKKEIEEIRNTTLQDVLVAVINIDPSALQPNVFVWHKGDPCPQPRQLSTEGLPACAPSVVRDYFEGSGFGFGVTIGTLCCFPLVSLLSAWIVARLRMRNFKRLQGQDRQSIVSEKLVGGMEALEWQGHKEPCRPVLVYLQPGQIRVVDGRLTVLRTIQLQPPQKVNFVLSSNRGRRTLLLKIPKEYDLVLLFNLEEERQALVENLRGALKESGLSIQEWELREQELMRAAVTREQRRHLLETFFRHLFSQVLDINQADAGTLPLDSSQKVREALTCELSRAEFAESLGLKPQDMFVESMFSLADKDGNGYLSFREFLDILVVFMKGSPEEKSRLMFRMYDFDGNGLISKDEFIRMLRSFIEISNNCLSKAQLAEVVESMFRESGFQDKEELTWEDFHFMLRDHNSELRFTQLCVKGVEVPEVIKDLCRRASYISQDMICPSPRVSARCSRSDIETELTPQRLQCPMDTDPPQEIRRRFGKKVTSFQPLLFTEAHREKFQRSCLHQTVQQFKRFIENYRRHIGCVAVFYAIAGGLFLERAYYYAFAAHHTGITDTTRVGIILSRGTAASISFMFSYILLTMCRNLITFLRETFLNRYVPFDAAVDFHRLIASTAIVLTVLHSVGHVVNVYLFSISPLSVLSCLFPGLFHDDGSEFPQKYYWWFFQTVPGLTGVVLLLILAIMYVFASHHFRRRSFRGFWLTHHLYILLYVLLIIHGSFALIQLPRFHIFFLVPAIIYGGDKLVSLSRKKVEISVVKAELLPSGVTHLRFQRPQGFEYKSGQWVRIACLALGTTEYHPFTLTSAPHEDTLSLHIRAAGPWTTRLREIYSAPTGDRCARYPKLYLDGPFGEGHQEWHKFEVSVLVGGGIGVTPFASILKDLVFKSSVSCQVFCKKIYFIWVTRTQRQFEWLADIIREVEENDHQDLVSVHIYITQLAEKFDLRTTMLYICERHFQKVLNRSLFTGLRSITHFGRPPFEPFFNSLQEVHPQVRKIGVFSCGPPGMTKNVEKACQLINRQDRTHFSHHYENF
modifications: N-linked glycosylation
notes: human DUOX1, matured protein residues 20-1551; Secretion guided by a rat FSHbeta signal peptide before the GFP tag; GFP-tagged protein is 219 kDa; also called GFP-tagged hDUOX1; WT hDOUX1; source: HEK293F, BacMam baculovirus infection; digitonin-solubilised membrane for FSEC; purified with hDUOXA1 (Streptactin beads, peptidisc with NSPr, Superose 6 increase) for cryo-EM; not shown: GFP, …
B2: human dual oxidase maturation factor 1 (hDUOXA1), as in the purified peptidisc complex (natural protein)
chain: MATLGHTFPFYAGPKPTFPMDTTLASIIMIFLTALATFIVILPGIRGKTRLFWLLRVVTSLFIGAAILAVNFSSEWSVGQVSTNTSYKAFSSEWISADIGLQVGLGGVNITLTGTPVQQLNETINYNEEFTWRLGENYAEEYAKALEKGLPDPVLYLAEKFTPRSPCGLYRQYRLAGHYTSAMLWVAFLCWLLANVMLSMPVLVYGGYMLLATGIFQLLALLFFSMATSLTSPCPLHLGASVLHTHHGPAFWITLTTGLLCVLLGLAMAVAHRMQPHRLKAFFNQSVDEDPMLEWSPEEGGLLSPRYRSMADSPKSQDIPLSEASSTKAY
modifications: N-linked glycosylation on N109
notes: human DUOXA1; cDNA cloned into a non-tagged BacMam vector or one with C-terminal MBP-mScarlet tag; the non-tagged one is surmised here; source: HEK293F, BacMam baculovirus infection, co-expressed with hDUOX1 from a bicistronic vector; purified with hDUOX1 (Streptactin beads, peptidisc, Superose 6 increase)

Tests used:
[1] = biological target: the molecule itself; assay: SEC; fluorescence size-exclusion chromatography (FSEC) of GFP-tagged hDUOX1 co-expressed with hDUOXA1; membrane solubilised in TBS + 1% digitonin, 1 h, 4 °C
[2] = biological target: B1; assay: cryo-EM structure; hDUOX1-hDUOXA1 complex in peptidisc (NSPr); 2.5 mM EGTA (low calcium) or 0.5 mM free calcium (high calcium); 100 uM FAD, 500 uM NADPH, 0.5 mM fluorinated octyl-maltoside; conditions: both partners purified

Binder | binding result [1] | stoichiometry N [2]
B1 | binds | 
B2 |  | 1 hDUOXA1 per hDUOX1 (2:2)
